Target: T1, Bone morphogenetic protein 2 (BMP-2), recombinant human (Homo sapiens) (UniProt P12643)
T1 sequence: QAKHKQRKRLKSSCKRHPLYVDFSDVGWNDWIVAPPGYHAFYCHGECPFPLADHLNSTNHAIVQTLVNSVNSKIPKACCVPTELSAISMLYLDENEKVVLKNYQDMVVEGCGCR
Experiment: cell-based or functional assay

B1: noggin (protein, UniProt Q13253 28-232, looked up, species assumed)
Noggin: QHYLHIRPAPSDNLPLVDLIEHPDPIFDPKEKDLNETLLRSLLGGHYDPGFMATSPPEDRPGGGGGAAGGAEDLAELDQLLRQRPSGAMPSEIKGLEFSEGLAQGKKQRLSKKLRRKLQMWLWSQTFCPVLYAWNDLGSRFWPRYVKVGSCFSKRSCSVPEGMVCKPSKSVHLTVLRWRCQRRGGQRCGWIPIQYPIISECKCSC
An inhibition of BMP-2-induced ALP activity in C2C12 cells; noggin at 30 ng/ml, BMP-2 at 100 ng/ml, no GAG of 14 percent, an inhibition of BMP-2-induced ALP activity in C2C12 cells; noggin at 30 ng/ml, in the presence of HS+ve of 2 percent and an inhibition of BMP-2-induced ALP activity in C2C12 cells; noggin at 30 ng/ml, in the presence of HSpm of 4 percent were found for B1 in this work. For the same binder, the inhibition of BMP-2-induced ALP activity in C2C12 cells; noggin at 100 ng/mL, in the presence of HS-ve was 75 percent, the inhibition of BMP-2-induced ALP activity in C2C12 cells; noggin at 100 ng/ml, BMP-2 at 100 ng/ml, no GAG was 95 percent and the inhibition of BMP-2-induced ALP activity in C2C12 cells; noggin at 100 ng/ml, in the presence of HS+ve was 43 percent. It also gave an inhibition of BMP-2-induced ALP activity in C2C12 cells; noggin at 100 ng/ml, in the presence of HSpm of 62 percent.

From patent US20170106012A1
